From patent US20090028881A1

Key:
[1] = molecular target: CCR5 mutant E172A (human) (UniProt P51681); assay: alanine scanning epitope mapping; wild-type CCR5 defined as 100%
[2] = molecular target: CCR5 mutant K171A (human) (UniProt P51681); assay: as above

epitope binding (% of wild-type CCR5) [1]: 20%
epitope binding (% of wild-type CCR5) [2]: 20%
B1: <CCR5>Pz03.1C5 (antibody, V domains shown)
VH: QVQLKQSGPGLVRPSQSLSITCTVSGFPLGIFGVHWVRQSPGKGLEWLGVIWKGGNTDYNAAFMSRLRITKDNSKSQVFFRMNSLQTDDTAIYYCAKVNLADAMDYWGQGTSVIVSS
VL: DIQMTQSPASLSASVGETVTITCRASGNIHGYLAWFQQKQGKSPQLLVYNTKTLAEGVPSRFSGSGSGTQFSLKINSLQPEDFGNYYCQHHYDLPRTFGGGTKLEIKR
